This assay deals with recombinant PRCP51 (recombinant human prolylcarboxypeptidase, predicted molecular mass 51 kDa) (human) (UniProt P42785). In words: cell-based or functional assay.

Drawing on patent US20080194485A1, “Detection and Use of Prolylcarboxypeptidase” (YALE UNIVERSITY, priority 2004, published 2008), this text covers inhibition of rPRCP51-induced prekallikrein (PK) activation (residual kallikrein activity on S2302), IC50 for 1 substance.

Chain of recombinant PRCP51 (recombinant human prolylcarboxypeptidase, predicted molecular mass 51 kDa) (human) (P42785 46-496 limits assumed): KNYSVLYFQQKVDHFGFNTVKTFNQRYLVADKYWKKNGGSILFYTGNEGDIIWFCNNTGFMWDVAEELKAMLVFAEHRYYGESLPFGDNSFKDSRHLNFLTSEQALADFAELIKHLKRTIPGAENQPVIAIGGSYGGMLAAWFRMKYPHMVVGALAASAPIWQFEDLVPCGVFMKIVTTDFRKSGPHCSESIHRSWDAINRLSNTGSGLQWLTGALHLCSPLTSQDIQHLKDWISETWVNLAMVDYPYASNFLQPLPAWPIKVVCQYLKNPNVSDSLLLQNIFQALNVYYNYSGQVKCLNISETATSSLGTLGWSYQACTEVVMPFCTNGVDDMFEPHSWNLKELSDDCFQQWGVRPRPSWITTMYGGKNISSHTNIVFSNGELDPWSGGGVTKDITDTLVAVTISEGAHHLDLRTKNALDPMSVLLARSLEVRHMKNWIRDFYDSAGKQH

Turning to “angiotensinogen II (AgII) (from UniProt P01019 25-32) (peptide)”, the inhibition of rPRCP51-induced prekallikrein (PK) activation (residual kallikrein activity on S2302), IC50 is 150 µM.
